Reference: PMC5143164 (Structure (London, England : 1993), 2016)
Read-outs that look alike come from different tables or passages of the source.

B1: Rasip1 RA domain (residues 134-285) (domain or fragment, human, UniProt Q5U651 134-285, looked up)
chain: EPPLATRATAPPGVLKIFGAGLASGANYKSVLATARSTARELVAEALERYGLAGSPGGGPGESSCVDAFALCDALGRPAAAGVGSGEWRAEHLRVLGDSERPLLVQELWRARPGWARRFELRGREEARRLEQEAFGAADSEGTGAPSWRPQK
B2: Rap1B (residues 1-167), GMP-PNP bound (domain or fragment, human, UniProt P61224 1-167, looked up)
chain: MREYKLVVLGSGGVGKSALTVQFVQGIFVEKYDPTIEDSYRKQVEVDAQQCMLEILDTAGTEQFTAMRDLYMKNGQGFALVYSITAQSTFNDLQDLREQILRVKDTDDVPMILVGNKCDLEDERVVGKEQGQNLARQWNNCAFLESSAKSKINVNEIFYDLVRQINR
B4: Radil RA domain (residues 51-193) (domain or fragment, human, UniProt Q96JH8 51-193, looked up)
chain: DPAELSTQLSAPGVLKVFGDSVCTGTHYKSVLATGTSSARELVKEALERYALDPRQAGQYVLCDVVGQAGDAGQRWQARCFRVFGDSEKPLLIQELWKPREGLSRRFELRKRSDVEELAAKEVDTITAGINAQARRLQRSRAK

Tests used:
NMR linewidths = target: the molecule itself; assay: NMR linewidths
[1] = target: B2; assay: ITC
[2] = target: B2; assay: ITC; remark: listed apart in the source
[3] = target: HRas (residues 1-189), GMP-PNP bound (human, UniProt P01112 1-189); assay: ITC
Chain of HRas (residues 1-189), GMP-PNP bound (P01112 whole entry, the tested form may be a part): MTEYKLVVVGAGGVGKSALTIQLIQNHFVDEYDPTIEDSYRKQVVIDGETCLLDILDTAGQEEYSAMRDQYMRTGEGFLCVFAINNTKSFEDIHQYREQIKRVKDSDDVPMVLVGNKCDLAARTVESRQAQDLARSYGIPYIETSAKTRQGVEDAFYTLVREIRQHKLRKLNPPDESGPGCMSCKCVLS

[4] = target: B4; assay: ITC
[5] = target: B1; assay: ITC
[6] = target: B2; assay: crystal structure
crystal structure = target: the molecule itself; assay: crystal structure

B1 was tested, and the binding result (NMR linewidths) was “binds”, the Kd [1] was 770 ± 90 nM and the Kd [2] was 900 nM. For the same binder, the Kd [3] was 2200 nM.

In the case of B2, the dH [4] is reported as -6.5 kcal/mol, the “stoichiometry N” value [4] is reported as 1.04 and the dH [5] is reported as -3.4 kcal/mol. For the same binder, the “stoichiometry N” value [5] was 1.22.

B3: trypsin-treated Rasip1 RA domain (domain or fragment, human, UniProt Q5U651 141-285, looked up)
chain: ATAPPGVLKIFGAGLASGANYKSVLATARSTARELVAEALERYGLAGSPGGGPGESSCVDAFALCDALGRPAAAGVGSGEWRAEHLRVLGDSERPLLVQELWRARPGWARRFELRGREEARRLEQEAFGAADSEGTGAPSWRPQK
B3: binds [6]; binds (crystal structure).

B4 was tested, and the Kd [2] was 1200 nM and the Kd [3] was 3900 nM.
